Measurements from patent publication US20190367619A1 (ARGENX, published 2019).

T1: recombinant human galectin-10, TEV-cleaved (human, UniProt Q05315 1-142)
T1 sequence: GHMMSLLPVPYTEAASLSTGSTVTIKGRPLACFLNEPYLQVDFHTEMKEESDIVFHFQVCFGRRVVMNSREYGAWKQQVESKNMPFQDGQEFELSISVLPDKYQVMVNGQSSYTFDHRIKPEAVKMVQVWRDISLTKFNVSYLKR

T2: human galectin-10-His (human)
T2 construct: The last M of the tag may be Met1 of galectin-10; also called humanGal10-His; hGal10
T2 chain: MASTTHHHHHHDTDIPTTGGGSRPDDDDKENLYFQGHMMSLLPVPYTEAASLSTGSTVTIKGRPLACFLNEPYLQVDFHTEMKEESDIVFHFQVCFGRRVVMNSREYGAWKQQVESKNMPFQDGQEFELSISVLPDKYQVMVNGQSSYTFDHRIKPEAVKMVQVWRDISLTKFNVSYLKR

T3: cynomolgus galectin-10-His, WGS isoform (cynomolgus)
T3 construct: also called cynoGal10-WGS; not shown: His tag
T3 chain: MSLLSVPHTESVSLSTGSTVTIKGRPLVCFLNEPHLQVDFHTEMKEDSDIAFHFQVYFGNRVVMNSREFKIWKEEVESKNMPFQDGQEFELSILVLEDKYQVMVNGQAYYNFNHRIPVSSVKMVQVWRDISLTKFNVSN


Key:
[1] = target: T1, recombinant human galectin-10, …; assay: cell-based or functional assay
human galectin-10-His [2] = target: T2, human galectin-10-His; assay: ELISA, galectin-10-His coated at 1 ug/mL, Fab
Procedure: The binding capacity of the lead anti-galectin-10 Fabs was tested by binding ELISA. Briefly, a Maxisorp plate was coated overnight with 1 μg/mL of human galectin-10-His. Then a serial dilution of each clone (from 4 μM, dilution 1/4, 12 points of dilutions) was incubated on coated galectin-10. After several washing steps, detection of the bound Fab was carried out with an anti-human IgG Fab specific-peroxidase. Absorbance was measured at 450 nm (reference at 620 nm) with Tecan instrument.

human galectin-10-His [3] = target: T2, human galectin-10-His; assay: ELISA, coated antigen 0.2 ug/mL
Procedure: In a similar setup to that used during the initial screening, the relative binding properties of the 11 new scFv-human Fc clones were analyzed by ELISA. Briefly, a Maxisorp plate was coated overnight with human or cynomolgus WGS or YRT isoforms of galectin-10-His at 0.2 μg/mL and blocked with PBS 1% casein, before being incubated with a serial dilution of the scFv-human Fc fusion molecules (from 100 nM, dilution 1/5, 8 points of dilutions). After several washing steps, detection of the bound scFv-human Fc was carried out with an anti-human Fc-HRP antibody (Jackson ImmunoResearch, Catalog 109-035-008). Absorbance was measured at 450 nm (reference at 620 nm) with Tecan instrument. Finally, the raw data (OD values) were plotted on GraphPad Prism 7.01. The EC50 values of each clone, calculated with a non-linear regression (log(agonist) vs. response Variable slope (four parameters)) are reported in Table 19 below. As a positive control, clone 6F05 from the previous galectin-10 antibody panel was included.

[4] = target: T1, recombinant human galectin-10, …; assay: cell-based or functional assay; remark: listed apart in the source
human galectin-10-His [5] = target: T2, human galectin-10-His; assay: ELISA, coated antigen 0.5 ug/mL
Procedure: (§1) In a similar setup to that used during the characterization of the scFv-human Fc molecules, the relative binding properties of the 7 mouse IgG1 antibodies were analyzed by ELISA. A Maxisorp plate was coated overnight with 0.5 μg/mL of human or cynomolgus WGS or YRT isoform of galectin-10-His. Then a serial dilution of each clone (from 100 nM, dilution 1/4, 12 points of dilutions) was incubated on coated galectin-10. After several washing steps, detection of the bound mouse IgG1 was carried out with an anti-mouse Fc-HRP antibody (DAMPO, Jackson ImmunoResearch, Catalog 715-035-150). Absorbance was measured at 450 nm (reference at 620 nm) with Tecan instrument. The raw data (OD values) were plotted on GraphPad Prism 7.01. The EC50 values for each antibody, calculated with a non-linear regression (log(agonist) vs. response Variable slope (four parameters)), are shown in the table below. Antibody 1D11 from the previous panel was included for comparison.

[6] = target: T3, cynomolgus galectin-10-His, WGS isoform; assay: ELISA, coated antigen 0.5 ug/mL
Procedure: as §1

human galectin-10-His [7] = target: T2, human galectin-10-His; assay: SPR Biacore T3000, mouse IgG1 captured
Procedure: The binding capacity of the mouse IgG1 antibody panel to galectin-10 was analysed on Biacore T3000. For this purpose, a capture approach was used, where a fixed concentration (1.5 μg/mL) of the mouse IgG1 clone was captured by polyclonal anti-mouse Fc antibodies immobilized on CM5 Chip to reach a binding signal around 150 RU. Then a serial dilution of human and cynomolgus WGS isoform of galectin-10-His (serial dilution, 1 over 2 from 5 μg/mL) diluted in HBS-EP pH7.4 was injected. Raw data were analysed via BIA evaluation software with a blank subtraction. The kd/KD and Rmax of each mAbs to galectin-10-His was determined using the Fit Kinetics simultaneous ka/kd/Binding with mass transfer/Local Rmax on BIA evaluation software.

| 50% crystal dissolution (min), 50 uM [1] [min] | 90% crystal dissolution (min), 50 uM [1] [min] | Bmax (human galectin-10-His [2]) [OD] | EC50 (human galectin-10-His [2]) [nM] | Binder | further results |
| --- | --- | --- | --- | --- | --- |
| 49.1 | > 120 | 0.36 | 89.5 | 10A06 Fab (Fab, V domains shown, Fab with human CH1 (including part of the hinge region) and human lambda constant domain; also called 10A06 hFab) VH: QVQLVESGGGLVQPGGSLRLSCAASGFTFGNYDMSWVRQAPGKGPEWVSDINSGGGSTYYADSVKGRFTISRDNAKNSLLLQMNSLKPEDTAVYYCATGYTGYYYWGQGTQVTVSS VL: QTVVTQEPSLSVSPGGTVTLTCGLSSGSVTSSNYPAWYQQTPGQAPRALIYSINSRHSGVPDRFSGSISGNKAALTITGAQAEDEADYYCTLYMGTGSNNVVFGGGTHLTVL | – |
| – | – | – | – | 6F05 scFv-human Fc (Fc fusion, Positive control from the first panel; also called 6F5; not shown: CH2-CH3 constant domains of human IgG1 (pUPEX50 scFv-Fc fusion vector)) scFv: QLQLVESGGGLVQPGGSLRLSCAASGFTFSSYAMSWVRQAPGKGLEWVSAINSGGGSTSYADSVKGRFTISRDNAKNTLYLQMNSLKPEDTAVYYCATPGDRLWYYRYDYWGQGTQVTVSSGGGGSGGGGSGGGGSQAGLTQPPSVSGTLGKAVTISCAGTSSDIGYGNYVSWYQQLPGTAPKLLIYKVSRRASGVPDRFSGSKSGNTASLSISGLQSEDEADYYCASYRYRNNVVFGGGTHLTVL | Bmax (human galectin-10-His [3]): 2.4 OD; EC50 (human galectin-10-His [3]): 0.02 nM |
| 100 | > 120 | – | – | 1D11 mouse IgG1 (antibody, V domains shown, Llama VH and VL on mouse IgG1 heavy chain constant domains (CH1-CH2-CH3) and mouse lambda light chain constant domain; also called 1D011; 1D11 mIgG1) VH: QVQLVESGGGLVQPGGSLRLSCAASGFTFDDYAMSWVRQAPGKGLEWVSGISWNGGSTYYAESMKGRFTISRDNAKNTLYLQMNSLKSEDTAVYYCAKDRNLGYRLGYPYDYWGQGTQVTVSS VL: QSVLTQPPSVSGSPGETVTISCAGTSSDVGYGNYVSWYQQLPGMAPRLLIYEVNKRASGITDRFSGSKSGNTASLTISGLQSEDEGDYYCASYRSSNNAVFGGGTHLTVL | 50% dissolution (min) of CLCs, antibody 50 uM [4]: 30.1 min; 90% dissolution (min) of CLCs, antibody 50 uM [4]: 56.7 min; EC50 (human galectin-10-His [5]): 0.1 nM; OD values (human galectin-10-His [5]): 2 OD; OD values [6]: 0.05 OD; binding result [6]: no binding (tested: serial dilution from 100 nM); Kd (human galectin-10-His [7]): 0.7 nM; koff (human galectin-10-His [7]): 0.00931 s⁻¹; kon (human galectin-10-His [7]): 1.27e+07 M⁻¹ s⁻¹ |
| 59.7 | > 120 | 1.03 | 16.1 | 10D02 Fab (Fab, V domains shown, Fab with human CH1 (including part of the hinge region) and human lambda constant domain; also called 10D2; 10D02 hFab) VH: EVQLVESGGGLVQPGGSLRVSCAASGFTFSSYYMSWVRQAPGKGLEWVSGIVTGGGRTHYTDSVKGRFTITRDNAKNTLYLQMNSLRPEDTALYYCARVNGVVTNYDYWGQGTQVTVSS VL: QAVLTQPPSVSGSPGKTVTISCAGTSSDVGYGNYVSWYQQLPGMAPKLLIYDVNKRASGITDRFSGSKSGNTASLTISGLQSEDEADYFCASYRSPNNVVFGQGTHLTVL | – |
| 102 | > 120 | 0.74 | 61.2 | 10B02 Fab (Fab, V domains shown, Fab with human CH1 (including part of the hinge region) and human lambda constant domain; also called 10B02 hFab) VH: QVQLVESGGGLVQPGGSLRVSCAASGFTFSYHYMNWVRQAPGKGLEWVSGISAGGGRTYYADSVKGRFTISRDNAKNTLYLQMNSLNAEDTALYYCARVHGITNDYWGQGTQVTVSS VL: QSALTQPPSVSGSPGKTVTISCAGTSSDVGYGNYVSWYQQLPGMAPKLLIYEVNKRASGITDRFSGSKSGNTAFLTISGLQSEDEADYYCASYRNSNNWVFGGGTHLTVL | – |
| 33.4 | 97.8 | 1.59 | 1.4 | 1D11 Fab (Fab, V domains shown, Fab with human CH1 (including part of the hinge region) and human lambda constant domain; also called Fab-1D11; 1D11 hFab) VH: QVQLVESGGGLVQPGGSLRLSCAASGFTFDDYAMSWVRQAPGKGLEWVSGISWNGGSTYYAESMKGRFTISRDNAKNTLYLQMNSLKSEDTAVYYCAKDRNLGYRLGYPYDYWGQGTQVTVSS VL: QSVLTQPPSVSGSPGETVTISCAGTSSDVGYGNYVSWYQQLPGMAPRLLIYEVNKRASGITDRFSGSKSGNTASLTISGLQSEDEGDYYCASYRSSNNAVFGGGTHLTVL | – |
| 48.5 | > 120 | 0.95 | 24.3 | 8H11 Fab (Fab, V domains shown, Fab with human CH1 (including part of the hinge region) and human lambda constant domain; also called 8H11 hFab) VH: ELQLVESGGGLVQPGGSLRLSCAASGFTFSTNYMNWVRQAPGKGLEWVSGITSGGGRTYYADSVKGRFTISRDNAKNTLYLQMNSLKPEDTALYYCARTDHAWLDAWGQGTLVTVSS VL: QAGLTQPPSVSGTLGKTVTISCAGTSSDVGYGNYVSWYQQLPGTAPKLLIYAVSTRASGIPDRFSGSKSGNTASLTISGLLSEDEADYYCASYRSSNNYVFGGGTKLTVL | – |
| 77.9 | > 120 | 0.46 | 81.4 | 11F02 Fab (Fab, V domains shown, Fab with human CH1 (including part of the hinge region) and human lambda constant domain; also called 11F02 hFab) VH: ELQVVESGGGLVQPGGSLRLSCAASGFTFSTNYMNWVRQAPGKGLEWVSGITSHGARTYYADSVKGRFTISRDNSKNTLYLQMNSLKPEDTALYYCARTDHASLDAWGQGTLVTVSS VL: QTVVTQEPSLSVSPGGTVTLTCGLSSGSVTSSNYPGWYQQKPGQAPRTLIYNTNSRYSGVPNRFSGSISGNKAALTITGAQPEDEADYYCALYMGSSSYNTVFGGGTHLTVL | – |
| 62 | > 120 | 1.38 | 22.4 | 11F12 Fab (Fab, V domains shown, Fab with human CH1 (including part of the hinge region) and human lambda constant domain; also called 11F12 hFab) VH: QVQLQESGGGLVQPGGSLRLSCAASGFTFSTNYMNWVRQAPGKGLEWVSGITSGGGRTYYADSVKGRFTISRDNAKNTLYLQMNSLKPEDTALYYCARTDHAWLDAWGQGTLVTVSS VL: HSAVTQPPSVSGTLGKTVTISCAGTSSDVGYGNYVSWYQHLPGTAPKLLIYAVSTRASGVPDRFSGSKSGNTASLTISGLQSEDEGDYYCASYSVRNNVVFGGGTRLTVL | – |
| 15.1 | 54.1 | 0.65 | 24.4 | 7B07 Fab (Fab, V domains shown, Fab with human CH1 (including part of the hinge region) and human lambda constant domain; also called 7B7; 7B07 hFab) VH: QVQLVESGGGLVQPGGSLRLSCAASGFTFRSYDMSWVRQAPGKGPEWVSAIKNGGGITYYADSVKGRFTISRDNAKNTLYLQMNSLKPEDTAVYYCATTHGIGTLGFGSWGQGTQVTVSS VL: SYELTQSASVSVALTQTAKITCDGNNIGSKSAQWYQQKPGQAPALVIYADEYRPEGIPERFSGSNSGNTATLIISGAQAEDEADYYCQVWDGSAAVFGRGTHLTVL | – |
